The results in this text go back to patent publication US20220073643A1 (NANJING GENSCRIPT BIOTECH, published 2022).

First the molecules themselves.
B1: 252E7C9 (antibody, V domains shown)
VH: QTYLQQSGAELVRSGASVKMSCRTSGYSFTSHNMHWVKQTPGQGLEWIGYIYPGNGGSYYNQKFKGKAILTADTSSSTAYMQISSLTSEDSAVYFCTRDYYGNSFVYWGQGTLVTVSA
VL: DVVMTQSPSSLTEKTGEKVSMSCKSSQSLLNSGNQKNYLTWYQQKPGQPPKLLIYWASTRESGVPDRFTGSGSGTDFTLTISSLQTEDLAIYYCQNNFRYPFTFGAGTKLELK
notes: mouse hybridoma mAb
B2: 260F8A6 (antibody, V domains shown)
VH: B1 VH with T2A, T24A, S28T, G57N, S58T, I69T, S77N, S84N, T97V
VL: B1 VL with T69I, I91V, F98Y, R99M
notes: mouse hybridoma mAb
B3: 246B5F2 (IgM) (antibody, V domains shown)
VH: EVMLVESGGGLMKPGGSLKLSCAASEFTFSNYAMSWVRQTPEKRLEWVATISSGRSSTYYPDSVKGRFTISRDNAKNTLYLQMSSLRSEDTAMYYCAGLGRGNAMEYWGQGTSVTVSS
VL: DIVMTQSPSSLTVTAGEKVTLSCKSSQSLLNSGNQKNYLTWYQQKPGQPPKLLIYWASTRESGVPDRFTGSGSGTDFILTINSVQAEDLAVYYCQNAYSYPFTFGSGTKLEIK
notes: mouse hybridoma mAb, IgM
B4: 275B2G2 (antibody, V domains shown)
VH: EVMLVESGGGLVKPGGSLKLSCAASGFTFRDYTMSWVRQTPEKRLEWVATSIIGGTYTYYPDSVKGRFTISRDNVKNTLYLQMSSLRSEDTAMYYCSRLGRGNAMDYWGQGTSVTVSS
VL: B3 VL with L21M, I78T, N82S, A97D
notes: mouse hybridoma mAb
B5: 254A8D5 (antibody, V domains shown)
VH: B4 VH with R30S, D31S, M34V, I53V, G55S, Y60F, N74F, V75A, Y80F, T115S
VL: B3 VL with S22N, K24R, I78T, N82S, E87D, A97G
notes: mouse hybridoma mAb
B6: 242F5H2 (antibody, V domains shown)
VH: B4 VH with R30S, D31S, M34V, I53V, G55S, Y60F, N74F, V75A, Y80F, T115S
VL: B3 VL with S22N, K24R, I78T, N82S, E87D, A97G
notes: mouse hybridoma mAb
B7: 259B4D4 (antibody, V domains shown)
VH: EIQLQQSGPELMKPGASVRISCKASGYSFTSYYMHWMKQSHVKSLEWIGYIDPFNGNTRYNQKFKDKATLTVDKSSTTAYMHLSSLTSEDSAVYFCASLRFFAYWGQGTLVTVSA
VL: DIVMTQSPSSLTVTAGEKVTMSCNSSQSLLNSGNQKNYLTWYQQKPGQPPKLLIYWASSRESGVPDRFTGSGSGTDFTLTISTVQAEDLAVYYCQNDYSFPLTFGAGTRLELK
notes: mouse hybridoma mAb
B8: 252C10F6 (antibody, V domains shown)
VH: QVHLKQSGRGLVQPSQSLSITCTVSGFSLPNYGVHWVRQPPGKGLEWLGVIWSGGNTDYNTVFKARLSITKDNSKSQVFFKMNSLQADDTAIYYCARNLYGNYDYAMDYWGQGTSVTVSS
VL: DIVMTQSPATLSVTPGDRVSLSCRASQSISDYLHWYQQKSHESPRLLIKYASQSISGIPSRFSGSGSGSEFTLSINSVEPEDVGVYYCQNGHSFPFTFGSGTKLEIK
notes: mouse hybridoma mAb
B9: 292D9C7 (antibody, V domains shown)
VH: QVQLKESGPGLVAPSQSLSITCTVSGFSLTDYGVSWIRQPPGKGLEWLGVIWGGGNAYYNSALKSRLSISKDNSKSQVFLKMNSLRTDDTAMYYCAKNGLLRYLDYWGQGSTLTVSS
VL: DTVMTQSPSSLTVTAGEKVTMSCKSSQSLLNSGNQKNYLTWYQQKPGQPPKLLIYWASTRESGVPDRFTGSGSGRDFTLTISSVQVEDLAIYYCQNDYYYPLTFGAGTKVELK
notes: mouse hybridoma mAb
B10: 273F3D4 (antibody, V domains shown)
VH: QVQLKESGPGLVAPSQSLSITCTVSGFALTTYGVSWVRQPPGKGLEWLGVIWGDGSTHYHSALISRLSIRKDNSKSQVFLKLNSLQTDDTATYYCAKPGRGNAMDYWGQGTSVTVSS
VL: B7 VL with T5S, N24K, P49S, S59T, T83S, V84M, S99I, F100Y, R109M
notes: mouse hybridoma mAb

Positions count from the first letter of the chain named.

The test has as its target T1, human Claudin18.2 (human).
T1 construct: also called CLDN18.2
Description: cell ELISA, Claudin18.2-expressing HEK293T cells. An outline of the steps:
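Claudin18.2-expressing HEK293T stable cells (1.5×10⁶ cells/ml in 5% skim milk/PBS blocking buffer) were incubated 1 h at room temperature in plates pre-blocked overnight at 4° C. EC₅₀ was derived by four-parameter curve fit.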
A general note: An ELISA detects its analyte on a solid surface through an enzyme-linked reagent.
As to B1, the EC50 was ~0.37 nM.

With B2, the EC50 amounted to 1.8 nM. For B3, the 50% effective concentration (EC50) was 6.59 nM. With B4, the concentration for a half-maximal effect (EC50) was ~2.06 nM.

Take B5: the midpoint of the response, the EC50, lay at 0.982 nM.

For B6, the EC50 was ~0.403 nM. Regarding B7, the concentration for a half-maximal effect (EC50) was ~0.378 nM. B8: the EC50 was ~12.5 nM. Molecule B9 displayed an EC50 of 0.875 nM.

In turn, B10 returned an EC50 of 1.13 nM.

Broadly, the EC50 is the concentration giving half of the maximal effect. Read a high EC50 as a less potent agent.
